Assay results from US20020037514A1, “Identification of nuclear receptor-dependent coregulator recruitment” (priority 2000, published 2002).

Target: T1, RARα-V5/RXRγ/DR-5 ternary complex (Homo sapiens, UniProt P10276)
T1 construct: the nuclear receptor subunits used in the invention are full length nuclear receptor monomer subunits; expressed in transfected cells; host or cells: CV-1 (green monkey kidney), whole-cell lysate
T1 sequence (P10276 1-462): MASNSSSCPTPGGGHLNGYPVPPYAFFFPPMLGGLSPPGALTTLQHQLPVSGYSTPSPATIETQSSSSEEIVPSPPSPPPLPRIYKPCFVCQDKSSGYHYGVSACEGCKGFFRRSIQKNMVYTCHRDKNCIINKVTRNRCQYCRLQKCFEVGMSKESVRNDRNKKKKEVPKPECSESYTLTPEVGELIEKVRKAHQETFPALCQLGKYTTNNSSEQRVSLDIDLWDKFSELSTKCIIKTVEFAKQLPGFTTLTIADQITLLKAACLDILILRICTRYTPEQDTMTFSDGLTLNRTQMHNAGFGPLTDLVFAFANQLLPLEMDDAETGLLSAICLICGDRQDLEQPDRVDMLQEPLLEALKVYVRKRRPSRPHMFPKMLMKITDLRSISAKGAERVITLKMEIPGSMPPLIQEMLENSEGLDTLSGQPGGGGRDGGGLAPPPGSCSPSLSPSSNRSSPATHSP
T1 sequence (P28705 1-463 partner): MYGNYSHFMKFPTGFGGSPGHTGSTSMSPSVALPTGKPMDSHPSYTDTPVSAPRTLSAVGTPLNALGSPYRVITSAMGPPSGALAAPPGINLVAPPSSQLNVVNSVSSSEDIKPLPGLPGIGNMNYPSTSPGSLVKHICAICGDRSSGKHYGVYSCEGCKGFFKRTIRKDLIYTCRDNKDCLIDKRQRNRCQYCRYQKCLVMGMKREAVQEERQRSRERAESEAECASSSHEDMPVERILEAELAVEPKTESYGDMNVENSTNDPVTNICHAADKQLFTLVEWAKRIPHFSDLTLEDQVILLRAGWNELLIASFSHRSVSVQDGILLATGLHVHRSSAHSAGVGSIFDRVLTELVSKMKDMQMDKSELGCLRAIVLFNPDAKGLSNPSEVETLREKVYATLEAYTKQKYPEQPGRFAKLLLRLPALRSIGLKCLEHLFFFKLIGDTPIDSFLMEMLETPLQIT
Assay: LXD peptide competition of ATRA-induced co-activator recruitment (Example 7, FIG. 8A)
Type: biochemical
Details: SRC-1 peptides at 40 μl (so in the source), DR-5 RARE
Description: Nolte, R. T. et al., Nature 395:137-143 (1998). We addressed the importance of each of the three LXDs in mediating co-activator-receptor interaction using synthetic peptides comprising the LXD1, LXD2 or LXD3 amino acid sequences as competitors with SRC-1 in the DNA modified immunoprecipitation methods of the present invention. These peptides have the following amino acid sequences (with the characteristic LXXLL motif shown in bold):
Transfection, DR-5 oligonucleotide treatment, ligand treatment, immunoprecipitation and detection of associated co-factors were performed essentially as shown in the previous Examples. CV-1 cells were transfected with plasmids expressing either RARα/RXRγ-V5 or with RARγ/RXRα-V5. Synthetic LXD peptides were added to the cell lysate before the addition of retinoids at a concentration of 20 (ACTR) and 40 (SRC-1) […].

Sequence: SLTERHKILHRLLQEGSPSDIT (Nuclear co-activator LXD-containing peptide) [SRC-1 LXD2]
- effect of peptide on ATRA-induced recruitment of SRC-1: completely abolished
